Experimental findings from patent publication US20240343809A1 (EXCELMAB, published 2024) are described below.

This test deals with T1, human B7-H3 antigen, recombinant extracellular domain (ECD) (29-461) (human, UniProt Q5ZPR3 29-461).
T1 construct: range 29-461; Expressed in 293F cells as B7-H3-TEV-cFc-His fusion, cut with TEV protease and cleaned over a nickel column to give the human B7-H3 antigen; also called recombinant human B7-H3 antigen; hB7-H3
T1 sequence (looked up): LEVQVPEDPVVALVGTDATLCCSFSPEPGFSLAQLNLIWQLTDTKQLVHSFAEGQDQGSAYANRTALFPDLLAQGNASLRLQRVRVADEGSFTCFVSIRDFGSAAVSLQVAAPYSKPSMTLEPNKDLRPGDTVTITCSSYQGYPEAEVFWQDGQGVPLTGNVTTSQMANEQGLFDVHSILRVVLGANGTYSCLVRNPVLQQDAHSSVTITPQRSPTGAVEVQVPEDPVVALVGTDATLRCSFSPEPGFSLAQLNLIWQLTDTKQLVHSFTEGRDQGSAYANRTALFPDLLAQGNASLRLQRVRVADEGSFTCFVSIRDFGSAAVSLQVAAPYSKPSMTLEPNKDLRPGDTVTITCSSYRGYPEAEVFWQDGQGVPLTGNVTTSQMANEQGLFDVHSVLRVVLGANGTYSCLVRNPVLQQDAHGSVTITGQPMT
The test can be described thus: ELISA, coated human B7-H3 antigen. On the procedure: The binding activity of the 5D9 to B7-H3 antigen was analyzed by ELISA. Human B7-H3 antigens were coated on the 96-well plate and placed at 4° C. overnight. The antibody 5D9 and controls were diluted to 10 μg/mL, followed by 4-fold dilution gradients to generate a total of 8 different concentrations. The diluted samples and the wells coated antigen were incubated for 1h. After washing, HRP (horseradish peroxidase)-labeled goat anti-human IgG (H+L) secondary antibody was added to the plate and incubated for 1h. TMB (3,3′,5,5′-tetramethylbenzidine) solution was then added to each well after washing for chromogenesis. The absorbance was measured at OD₄₅₀ₙₘ with a microplate reader. Taking the logarithmic value of the sample concentration as the X-axis, and the absorbance OD₄₅₀ₙₘ value as the Y-axis, a dose-response curve was drawn to calculate the EC₅₀. The EC₅₀ represents the binding activity of the antibody to B7-H3 antigen. A negative control IgG group and a positive antibody Enoblituzumab control group were meanwhile set in the experiment.
ELISA was used to analyze the binding activity of affinity-matured variants to human B7-H3 antigen. By taking the logarithmic value of the sample concentration as the X-axis, and the absorbance OD₄₅₀ₙₘ value as the Y-axis, a dose-response curve was drawn to calculate the EC₅₀. The EC₅₀ represents the binding activity of the affinity-matured variants to B7-H3 antigen. A positive control Enoblituzumab and a negative control hIgG were set in the experiment.

B1: Enoblituzumab (antibody, V domains shown)
VH: EVQLVESGGGLVQPGGSLRLSCAASGFTFSSFGMHWVRQAPGKGLEWVAYISSDSSAIYYADTVKGRFTISRDNAKNSLYLQMNSLRDEDTAVYYCGRGRENIYYGSRLDYWGQGTTVTVSS
VL: DIQLTQSPSFLSASVGDRVTITCKASQNVDTNVAWYQQKPGKAPKALIYSASYRYSGVPSRFSGSGSGTDFTLTISSLQPEDFATYYCQQYNNYPFTFGQGTKLEIKR
As for B1, the EC50 worked out at 0.0255 µg/mL.

B2: affinity-matured B7-H3 antibody 50A4 (antibody, V domains shown)
VH: QVQLVQSGAEVKKPGSSVKVSCKASGGTFSNYAINWVRQAPGQGLEWMGGIIPLFGTANYAQKFQGRVTITADESTSTAYMELSSLRSDDTAVYYCARDEVVVGSGVNFGMDVWGQGTTVTVSS
VL: DIQMTQEPSLTTSPGGTVTLTCRSSTGAVTTSNYANWVQEKPGQAPRGLIGGTNKRAPGTPARFSGSLIGGKAALTITGVQPEDEAIYFCALWYSNLWVFGGGTKLEIK
notes: Full antibody expressed in 293F cells, protein A purified; VH assembled from the framework and CDR entries
As to B2, the EC50 worked out at 0.0274 µg/mL.

B3: affinity-matured B7-H3 antibody 46D4 (antibody, V domains shown)
VH: QVQLVQSGAEVKKPGSSVKVSCKASGGTFSNYAINWVRQAPGQGLEWMGGIIPLFGTANYAQKFQGRVTITADESTSTAYMELSSLRSDDTAVYYCARDVVVPRSGVNFGMDVWGQGTTVTVSS
VL: DIQMTQEPSLTTSPGGTVTLTCRSSTGAVTTSNYANWVQEKPGQAPRGLIGGTNKRAPGTPARFSGSLIGGKAALTITGVQPEDEAIYFCALWYSNLWVFGGGTKLEIK
notes: as for B2
B3: the EC50 amounted to 0.0283 µg/mL.

B4: affinity-matured B7-H3 antibody 50B10 (antibody, V domains shown)
VH: QVQLVQSGAEVKKPGSSVKVSCKASGGTFSNYAINWVRQAPGQGLEWMGGIIPLFGTANYAQKFQGRVTITADESTSTAYMELSSLRSDDTAVYYCARDVEVFNSGVNFGMDVWGQGTTVTVSS
VL: DIQMTQEPSLTTSPGGTVTLTCRSSTGAVTTSNYANWVQEKPGQAPRGLIGGTNKRAPGTPARFSGSLIGGKAALTITGVQPEDEAIYFCALWYSNLWVFGGGTKLEIK
notes: as for B2
For B4, the concentration giving a half-maximal response (EC50) came to 0.0278 µg/mL.

B5: affinity-matured B7-H3 antibody 46H7 (antibody, V domains shown)
VH: QVQLVQSGAEVKKPGSSVKVSCKASGGTFSNYAINWVRQAPGQGLEWMGGIIPLFGTANYAQKFQGRVTITADESTSTAYMELSSLRSDDTAVYYCARDRFTPRSGVNFGMDVWGQGTTVTVSS
VL: DIQMTQEPSLTTSPGGTVTLTCRSSTGAVTTSNYANWVQEKPGQAPRGLIGGTNKRAPGTPARFSGSLIGGKAALTITGVQPEDEAIYFCALWYSNLWVFGGGTKLEIK
notes: as for B2
Consider B5, for which the EC50 was 0.039 µg/mL.

B6: affinity-matured B7-H3 antibody 50A6 (antibody, V domains shown)
VH: QVQLVQSGAEVKKPGSSVKVSCKASGGTFSNYAINWVRQAPGQGLEWMGGIIPLFGTANYAQKFQGRVTITADESTSTAYMELSSLRSDDTAVYYCARDAVVPNSGVNFGMDVWGQGTTVTVSS
VL: DIQMTQEPSLTTSPGGTVTLTCRSSTGAVTTSNYANWVQEKPGQAPRGLIGGTNKRAPGTPARFSGSLIGGKAALTITGVQPEDEAIYFCALWYSNLWVFGGGTKLEIK
notes: as for B2
For B6, the concentration giving a half-maximal response (EC50) came out at 0.0247 µg/mL.

B7: affinity-matured B7-H3 antibody 44C5 (antibody, V domains shown)
VH: QVQLVQSGAEVKKPGSSVKVSCKASGGTFSNYAINWVRQAPGQGLEWMGGIIPRFGGVNYAQKFQGRVTITADESTSTAYMELSSLRSDDTAVYYCARDQVVATSGVNFGMDVWGQGTTVTVSS
VL: DIQMTQEPSLTTSPGGTVTLTCRSSTGAVTTSNYANWVQEKPGQAPRGLIGGTNKRAPGTPARFSGSLIGGKAALTITGVQPEDEAIYFCALWYSNLWVFGGGTKLEIK
notes: as for B2
On to B7, for which the EC50 was 0.0639 µg/mL.

B8: affinity-matured B7-H3 antibody 42F7 (antibody, V domains shown)
VH: QVQLVQSGAEVKKPGSSVKVSCKASGGTRPAALINWVRQAPGQGLEWMGGIIPLFGTANYAQKFQGRVTITADESTSTAYMELSSLRSDDTAVYYCARDQVVATSGVNFGMDVWGQGTTVTVSS
VL: DIQMTQEPSLTTSPGGTVTLTCRSSTGAVTTSNYANWVQEKPGQAPRGLIGGTNKRAPGTPARFSGSLIGGKAALTITGVQPEDEAIYFCALWYSNLWVFGGGTKLEIK
notes: as for B2
For B8, the EC50 was found to be 0.0278 µg/mL.

B9: affinity-matured B7-H3 antibody 44F2 (antibody, V domains shown)
VH: QVQLVQSGAEVKKPGSSVKVSCKASGGTFSNYAINWVRQAPGQGLEWMGGIIPGFYSLNYAQKFQGRVTITADESTSTAYMELSSLRSDDTAVYYCARDQVVATSGVNFGMDVWGQGTTVTVSS
VL: DIQMTQEPSLTTSPGGTVTLTCRSSTGAVTTSNYANWVQEKPGQAPRGLIGGTNKRAPGTPARFSGSLIGGKAALTITGVQPEDEAIYFCALWYSNLWVFGGGTKLEIK
notes: as for B2
In the case of B9, the EC50 came out at 0.0464 µg/mL.

B10: affinity-matured B7-H3 antibody 45B11 (antibody, V domains shown)
VH: QVQLVQSGAEVKKPGSSVKVSCKASGGTFSNYAINWVRQAPGQGLEWMGGIIPMWQSVNYAQKFQGRVTITADESTSTAYMELSSLRSDDTAVYYCARDQVVATSGVNFGMDVWGQGTTVTVSS
VL: DIQMTQEPSLTTSPGGTVTLTCRSSTGAVTTSNYANWVQEKPGQAPRGLIGGTNKRAPGTPARFSGSLIGGKAALTITGVQPEDEAIYFCALWYSNLWVFGGGTKLEIK
notes: as for B2
As for B10, the half-maximal effective concentration (EC50) was determined as 0.0265 µg/mL.

B11: affinity-matured B7-H3 antibody 47H4 (antibody, V domains shown)
VH: QVQLVQSGAEVKKPGSSVKVSCKASGGTFSNYAINWVRQAPGQGLEWMGGIIPLFGTANYAQKFQGRVTITADESTSTAYMELSSLRSDDTAVYYCARDFDAPGSGVNFGMDVWGQGTTVTVSS
VL: DIQMTQEPSLTTSPGGTVTLTCRSSTGAVTTSNYANWVQEKPGQAPRGLIGGTNKRAPGTPARFSGSLIGGKAALTITGVQPEDEAIYFCALWYSNLWVFGGGTKLEIK
notes: as for B2
Turning to B11, the EC50 turned out to be 0.0244 µg/mL.

B12: affinity-matured B7-H3 antibody 43G11 (antibody, V domains shown)
VH: QVQLVQSGAEVKKPGSSVKVSCKASGGTLRPVLINWVRQAPGQGLEWMGGIIPLFGTANYAQKFQGRVTITADESTSTAYMELSSLRSDDTAVYYCARDQVVATSGVNFGMDVWGQGTTVTVSS
VL: DIQMTQEPSLTTSPGGTVTLTCRSSTGAVTTSNYANWVQEKPGQAPRGLIGGTNKRAPGTPARFSGSLIGGKAALTITGVQPEDEAIYFCALWYSNLWVFGGGTKLEIK
notes: as for B2
As to B12, the concentration giving a half-maximal response (EC50) was determined as 0.0411 µg/mL.

B13: affinity-matured B7-H3 antibody 43D4 (antibody, V domains shown)
VH: QVQLVQSGAEVKKPGSSVKVSCKASGGTSGVALINWVRQAPGQGLEWMGGIIPLFGTANYAQKFQGRVTITADESTSTAYMELSSLRSDDTAVYYCARDQVVATSGVNFGMDVWGQGTTVTVSS
VL: DIQMTQEPSLTTSPGGTVTLTCRSSTGAVTTSNYANWVQEKPGQAPRGLIGGTNKRAPGTPARFSGSLIGGKAALTITGVQPEDEAIYFCALWYSNLWVFGGGTKLEIK
notes: as for B2
On to B13, for which the EC50 was 0.0303 µg/mL.

B14: affinity-matured B7-H3 antibody 50A11 (antibody, V domains shown)
VH: QVQLVQSGAEVKKPGSSVKVSCKASGGTFSNYAINWVRQAPGQGLEWMGGIIPLFGTANYAQKFQGRVTITADESTSTAYMELSSLRSDDTAVYYCARDQVVPRSGVNFGMDVWGQGTTVTVSS
VL: DIQMTQEPSLTTSPGGTVTLTCRSSTGAVTTSNYANWVQEKPGQAPRGLIGGTNKRAPGTPARFSGSLIGGKAALTITGVQPEDEAIYFCALWYSNLWVFGGGTKLEIK
notes: as for B2
For B14, the EC50 turned out to be 0.0339 µg/mL.

B15: affinity-matured B7-H3 antibody 46H9 (antibody, V domains shown)
VH: QVQLVQSGAEVKKPGSSVKVSCKASGGTFSNYAINWVRQAPGQGLEWMGGIIPLFGTANYAQKFQGRVTITADESTSTAYMELSSLRSDDTAVYYCARDREARESGVNFGMDVWGQGTTVTVSS
VL: DIQMTQEPSLTTSPGGTVTLTCRSSTGAVTTSNYANWVQEKPGQAPRGLIGGTNKRAPGTPARFSGSLIGGKAALTITGVQPEDEAIYFCALWYSNLWVFGGGTKLEIK
notes: as for B2
On to B15, for which the half-maximal effective concentration (EC50) is 0.147 µg/mL.

B16: affinity-matured B7-H3 antibody 50E3 (antibody, V domains shown)
VH: QVQLVQSGAEVKKPGSSVKVSCKASGGTFSNYAINWVRQAPGQGLEWMGGIIPLFGTANYAQKFQGRVTITADESTSTAYMELSSLRSDDTAVYYCARDVNNPGSGVNFGMDVWGQGTTVTVSS
VL: DIQMTQEPSLTTSPGGTVTLTCRSSTGAVTTSNYANWVQEKPGQAPRGLIGGTNKRAPGTPARFSGSLIGGKAALTITGVQPEDEAIYFCALWYSNLWVFGGGTKLEIK
notes: as for B2
Take B16: the concentration giving a half-maximal response (EC50) came to 0.0418 µg/mL.

B17: affinity-matured B7-H3 antibody 45F4 (antibody, V domains shown)
VH: QVQLVQSGAEVKKPGSSVKVSCKASGGTFSNYAINWVRQAPGQGLEWMGGIIPLFRSSNYAQKFQGRVTITADESTSTAYMELSSLRSDDTAVYYCARDQVVATSGVNFGMDVWGQGTTVTVSS
VL: DIQMTQEPSLTTSPGGTVTLTCRSSTGAVTTSNYANWVQEKPGQAPRGLIGGTNKRAPGTPARFSGSLIGGKAALTITGVQPEDEAIYFCALWYSNLWVFGGGTKLEIK
notes: as for B2
Regarding B17, the concentration for a half-maximal effect (EC50) came out at 0.0219 µg/mL.
